Key:
MS2 coat protein [1] = assay: apparent KD of MS2 coat protein; designed switch direction (-1 OFF switch, 1 ON switch): 1; higher = weaker reporter binding; conditions: Eterna round: R98
Procedure: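 RNA-MaP: designed FMN/MS2 RNA switches (84 nt design region) are transcribed on-chip within common flanks and titrated with SNAP-549-labelled MS2 coat protein (about 1-3000 nM) in 100 mM Tris pH 7.5, 80 mM KCl, 4 mM MgCl2, without or with 200 uM FMN. Median apparent KD per design; activation ratio = KD,OFF / KD,ON.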

MS2 coat protein [2] = assay: apparent KD of MS2 coat protein, switch ON state; designed switch direction (-1 OFF switch, 1 ON switch): 1; higher = weaker reporter binding; conditions: FMN input: 0 or 200 uM; Eterna round: R93 (includes R88 designs)
In short: (§1)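 The buffer was 100 mM Tris-HCl pH 7.5 with 80 mM KCl and 4 mM MgCl2, used without or with constant ligand. In it, RNA switches transcribed on-chip from Illumina sequencing clusters were titrated with SNAP-549-labelled MS2 coat protein in twofold steps from 0.7 or 1.5 nM to 3 µM. Apparent KD for each design is the median of its normalised cluster binding-curve fits.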

MS2 coat protein [3] = assay: apparent KD of MS2 coat protein, switch OFF state (with FMN for OFF switches, without FMN for ON switches); designed switch direction (-1 OFF switch, 1 ON switch): 1; higher = weaker reporter binding; conditions: FMN input: 0 or 200 uM; Eterna round: R93 (includes R88 designs)
In short: as §1

| Sequence | apparent KD of MS2 coat protein (MS2 coat protein [1]; input ligand: FMN 200 uM) | apparent KD of MS2 coat protein (MS2 coat protein [1]; input ligand: none) | apparent KD of MS2 coat protein (MS2 coat protein [2]) | apparent KD of MS2 coat protein (MS2 coat protein [3]) |
| --- | --- | --- | --- | --- |
| AAUAAUCAGGUAGGAUAUGCUCAGGAAUACUGAGCAGAAGGACUAGAAACCUGAGGAUCACCCAGGUAACUGGACCGGAAACGG [Same State NG1 - A3C, U17G Submission 6C] | 0.0423 µM | 0.0811 µM | – | – |
| ACGUCCCGCAGAGGAUAUGUUGUUCGGCCUACAUGAGGAUCACCCAUGUCAAAGGGCUGAUCCCGACAGAAGGCUGAAGGAUAC [Qudiator] | 0.0248 µM | 0.0575 µM | – | – |
| AUAAUAACUUGAGGAUAUCGAGUGGAAUACACUCGAGAAGGCAGGGAAACCUGAGGAUCACCCAGGUAAAUAAUAAUAAUAAUA [Same State NG1 - A3C, U17G Submission 1C] | 0.0227 µM | 0.0213 µM | – | – |
| CACAGGGAUUCAGGAUAUAUUAGCCGAGGCCGCGUAGAAGGGAAAUCCUGACAUGAGGAUCACCCAUGUUAACCCACCUUCCAU [Fingerlickinggood#3] | 0.0229 µM | 0.0273 µM | – | – |
| CCAAUAUAGUGAGGAUAUGCACAGGAUCACCGUGUAGAAGGCAUCAGGUAGAAGGUGCAGAGGAUCACCCUGUAAGGAUAUACA [pwkr2 ssNG1 DX.7] | 0.129 µM | 0.406 µM | – | – |
| CCCUUCAGAAGAGGGACAUGAGGAUCACCCAUGUAGGCUGCACAGGAUAUCGAUCGGAGGCGGUACGAGAAGGGUGAUGUCAUU [Riorrebi] | 0.0279 µM | 0.0362 µM | – | – |
| CGAGACACUUGAGGAUAUGCUCAGGAAUACUGAGCAGAAGGCAGGGAAACCUGAGGAUCACCCAGGUAACUGGAAAGUCUCGAA [Same State NG1 - A3C, U17G Submission 5A] | 0.019 µM | 0.0292 µM | – | – |
| GACGGAUUCUUAGGAUAUGCUCAGGAAUACUGAGCAGAAGGAAGAAUAACCUGAGGAUCACCCAGGUAAUACUGAACGUCAAUA [Same State NG1 - A3C, U17G Submission 9A] | 0.0237 µM | 0.0581 µM | – | – |
| GCAAAUGGGCGAGGAUAUGGGACGGGCCUAAACAGGGCACAUGAGGAUCACCCAUGUCACACGACCCAGAAGGCGCUAAGAACG [Bemave] | 0.144 µM | 0.399 µM | – | – |
| GCAGAAGGUGCGGAGGAUCACCCUGUAAGGAUAUGCAUUAGCAAGGAUAUACAGAGGAUCACCCUGUAGAAGGUGCACUUCUGA [pwkr2 ssNG3 DX.8] | 2.12 µM | 0.85 µM | – | – |
| GCCAACUUAUGAGGAUAUGGCACCUUAUUGGUGCCAGAAGGCAUGUCAAUUGACAUGAGGAUCACCCAUGUAUUAUAGUUGGCA [Fiskers NG1ss - 20 m2] | 0.112 µM | 0.724 µM | – | – |
| GGCUGCAAUUAUGAGGAUAUGUUUGGAUGAACAUGAGGAUCACCCAUGUGGCGAUAGCCGUCUAUGCAGAAGGUGUAGUGGCGGC [Ertion] | – | – | 0.0259 µM | 0.0591 µM |
| GGGAGACAUGAGGAUCACCCAUGUGAGAAGAGGCGAGGAUAUCGAAAGAAAGAAGAGAAACGAGAAGGCGCGAGGU [salish99-SS1-055] | – | – | 0.0398 µM | 0.0723 µM |
| GGGAGACAUGAGGAUCACCCAUGUGAGAAGAGGCGAGGAUAUCGAAAGAAAGAAGAGAAACGAGAAGGCGCGAGUC [salish99-SS1-062] | – | – | 0.0452 µM | 0.0634 µM |
| GUGGCCCAGGCACAGGAUAUGUUUCUCGUAACAUGAGGAUCACCCAUGUGCCUAUGAGAUUUAAUGCAGAAGGGUGCACGCCACG [Atiinbe] | – | – | 0.0164 µM | 0.342 µM |
| GUGUAUAGCCUCGAGGAUAUCCUGUAAUGCACAUGAGGAUCACCCAUGUAUGAGCGAGUUUUUUGGGAGAAGGCGAGUUAUCGGU [JR_SS002_Sub1709] | – | – | 0.0129 µM | 0.0242 µM |

| Sequence | apparent KD of MS2 coat protein (MS2 coat protein [1]; input ligand: FMN 200 uM) | apparent KD of MS2 coat protein (MS2 coat protein [1]; input ligand: none) | apparent KD of MS2 coat protein (MS2 coat protein [2]) | apparent KD of MS2 coat protein (MS2 coat protein [3]) |
| --- | --- | --- | --- | --- |
| UAAAAAACGUAUGAGGAUAUCCAAAAUAAAACAUGAGGAUCACCCAUGUGAAUAAAAUAACAAUGGGAGAAGGCAUACGUAUCAU [Mat - Same state - Malcolm Mod - D138] | – | – | 0.0463 µM | 0.0208 µM |
| UAAAAACAUGAGGAUCACCCAUGUAAGAUAAACACAGGAUAUGCGAAAAGAAACAAAGAAGCAGAAGGGUGAAAAU [Mat - Same State 1 - Tesla mod - 44] | – | – | 0.0173 µM | 0.0648 µM |
| UAAAAACAUGAGGAUCACCCAUGUAGAAAUAUGGGAGGAUAUACAAAGACGAAAGUCAAAGUAGAAGGCCUGAAAU [Mat - Same State 1 - Eli mod - 85] | – | – | 0.0215 µM | 0.0887 µM |
| UAACAACAUGAGGAUCACCCAUGUCAAACAGAUCGAGGAUAUGGGCAGGGUUUUCCCUAACUAGAAGGCGAAGACA [Leinxeerri] | – | – | 0.0711 µM | 0.181 µM |
| UACACGCGGGCGCAGGAUAUGUCGCUGGUGACAUGAGGAUCACCCAUGUAUACCAUUGCGGUUGAGCAGAAGGGUGAGAAGCGUG [Raanlaza] | – | – | 0.0204 µM | 0.0563 µM |
| UAUCAUUACACGAAGGAUAUCGAUAAUAGAACAUGAGGAUCACCCAUGUGAAAUAAAAUACAGAACGAGAAGGUCGAGGGUGAAG [JR_SS002_Sub703] | – | – | 0.0197 µM | 0.0168 µM |
| UAUCAUUACACGAAGGAUAUCGAUAAUUGAACAUGAGGAUCACCCAUGUGCCAUUCUUUACAGUUCGAGAAGGUCGAGGGUGAAG [JR_SS002_Sub708] | – | – | 0.0727 µM | 0.0835 µM |
| UGAAGACAUGAGGAUCACCCAUGUGGGAUUAUGGGAGGAUAUACAAAGACGAGAGUCAGAGUAGAAGGCCUAGGAA [salish99-ss1-116(!)] | – | – | 0.0361 µM | 0.068 µM |
| UGAAGACAUGAGGAUCACCCAUGUGGGAUUAUGGGAGGAUAUACAAAGACGAGAGUCAGAGUAGAAGGCCUAGGAC [salish99-ss1-119(!)] | – | – | 0.0322 µM | 0.0729 µM |
| UGGAGACAUGAGGAUCACCCAUGUGAGAAGAGGCGAGGAUAUCGAAAGAAAGAAGAGAAACGAGAAGGCGCGAGGG [salish99-SS1-043] | – | – | 0.0497 µM | 0.0521 µM |
| UGGAGACAUGAGGAUCACCCAUGUGAGAAGAGGCGAGGAUAUCGAAAGAAAGAAGAGAAACGAGAAGGCGCGAGUA [salish99-SS1-038] | – | – | 0.0321 µM | 0.0393 µM |
| UUGCAGUACGGGUAGGAUAUGUAGGGUGGUACAUGAGGAUCACCCAUGUGUCCACCCUUCGACCGGCAGAAGGGCCUGUCACUGC [Lerieseser] | – | – | 0.0175 µM | 0.0173 µM |
| UUUAAUUAUACGAAGGAUAUCGGUAAUUAGACAUGAGGAUCACCCAUGUUAUAAGGUUCCAUAUUCGAGAAGGUCGCGGGUGAAC [JR_SS002_Sub509] | – | – | 0.0161 µM | 0.0182 µM |
| UUUAAUUAUACGAAGGAUAUCGGUAAUUAGACAUGAGGAUCACCCAUGUUAUAUGGUUAAAUAUUCGAGAAGGUCGAGGGUGAAA [JR_SS002_Sub506] | – | – | 0.0302 µM | 0.0321 µM |
| UUUAAUUAUACGAAGGAUAUCGGUAAUUAGACAUGAGGAUCACCCAUGUUAUAUGGUUAAAUAUUCGAGAAGGUCGCGGGUGAAC [JR_SS002_Sub507] | – | – | 0.0478 µM | 0.0336 µM |
| UUUAGCUGCGGGCAGGAUAUGUAUUAAAAUACAUGAGGAUCACCCAUGUGCAGGUGUAACACCUGACAGAAGGGCCAAUCGCGGC [Bequre] | – | – | 0.025 µM | 0.193 µM |
